The results in this text go back to patent US20260001928A1 (CORTERIA PHARMACEUTICALS, priority 2022, published 2026).

In general, EC50 refers to the concentration needed to bring the measured effect to its halfway point.

In one assay the target is T1, CRF1R receptor (UniProt P34998 24-415, limits assumed).
T1 sequence (looked up): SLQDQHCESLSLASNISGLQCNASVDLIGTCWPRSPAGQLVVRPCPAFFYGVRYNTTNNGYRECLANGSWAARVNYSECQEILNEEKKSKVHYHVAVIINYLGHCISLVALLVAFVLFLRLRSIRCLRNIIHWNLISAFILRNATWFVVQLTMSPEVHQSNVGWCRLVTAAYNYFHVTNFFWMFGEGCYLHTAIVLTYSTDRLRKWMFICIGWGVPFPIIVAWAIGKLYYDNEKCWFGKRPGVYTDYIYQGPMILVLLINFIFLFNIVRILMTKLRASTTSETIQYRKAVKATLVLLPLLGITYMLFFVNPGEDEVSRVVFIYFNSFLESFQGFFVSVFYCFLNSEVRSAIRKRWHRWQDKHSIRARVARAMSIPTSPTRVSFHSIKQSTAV
The assay is described as follows: cell-based or functional assay.

Assay [1] addresses human corticotropin-releasing factor 2a (CRF2a receptor) (human), Q13324. The assay is described as follows: cell-based or functional assay.

*1 amine or outer side, *2 acyl side, *3 side chain or, on linkers, in order; H or OH if unused. Where no end group is shown, it is not given here. Side-chain parts run from the residue outwards. [ ]: non-standard residue; d: D form. The star is where a group is joined. C18 diacid = O=C(O)CCCCCCCCCCCCCCCCC(=O)*; C16 diacid = O=C(O)CCCCCCCCCCCCCCC(=O)*; γGlu = O=C(O)[C@H](CCC(=O)[*:2])N[*:1]; αMeL = CC(C)C[C@](C)(N)C(=O)O; Pentanoyl = CCCCC(=O)*; AEEA = NCCOCCOCC(=O)O; Aib = CC(C)(N)C(=O)O Bounds are passed on as bounds.

Chain of human corticotropin-releasing factor 2a (CRF2a receptor) (human), Q13324 (Q13324 20-411): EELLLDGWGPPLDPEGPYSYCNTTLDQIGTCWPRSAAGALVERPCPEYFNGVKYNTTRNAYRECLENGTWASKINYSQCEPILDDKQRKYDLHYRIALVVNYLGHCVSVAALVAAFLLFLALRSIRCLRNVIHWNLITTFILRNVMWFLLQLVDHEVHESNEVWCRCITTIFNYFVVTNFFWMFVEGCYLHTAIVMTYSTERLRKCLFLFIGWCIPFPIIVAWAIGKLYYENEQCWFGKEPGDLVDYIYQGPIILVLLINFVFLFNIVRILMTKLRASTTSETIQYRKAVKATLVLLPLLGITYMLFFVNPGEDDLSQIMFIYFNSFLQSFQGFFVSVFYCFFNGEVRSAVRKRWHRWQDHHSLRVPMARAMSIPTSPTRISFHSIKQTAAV

B1: SEQ ID NO 16 (peptide)
peptide: Ac-IVLSLD[dV]PIKLK([γGlu-C16 diacid])QILLKQERQKKQREQAEKN[Aib]QILEQV-NH2
SMILES: CC[C@H](C)[C@H](NC(C)=O)C(=O)N[C@H](C(=O)N[C@@H](CC(C)C)C(=O)N[C@@H](CO)C(=O)N[C@@H](CC(C)C)C(=O)N[C@@H](CC(=O)O)C(=O)N[C@@H](C(=O)N1CCC[C@H]1C(=O)N[C@H](C(=O)N[C@@H](CCCCN)C(=O)N[C@@H](CC(C)C)C(=O)N[C@@H](CCCCNC(=O)CC[C@H](NC(=O)CCCCCCCCCCCCCCC(=O)O)C(=O)O)C(=O)N[C@@H](CCC(N)=O)C(=O)N[C@H](C(=O)N[C@@H](CC(C)C)C(=O)N[C@@H](CC(C)C)C(=O)N[C@@H](CCCCN)C(=O)N[C@@H](CCC(N)=O)C(=O)N[C@@H](CCC(=O)O)C(=O)N[C@@H](CCCNC(=N)N)C(=O)N[C@@H](CCC(N)=O)C(=O)N[C@@H](CCCCN)C(=O)N[C@@H](CCCCN)C(=O)N[C@@H](CCC(N)=O)C(=O)N[C@@H](CCCNC(=N)N)C(=O)N[C@@H](CCC(=O)O)C(=O)N[C@@H](CCC(N)=O)C(=O)N[C@@H](C)C(=O)N[C@@H](CCC(=O)O)C(=O)N[C@@H](CCCCN)C(=O)N[C@@H](CC(N)=O)C(=O)NC(C)(C)C(=O)N[C@@H](CCC(N)=O)C(=O)N[C@H](C(=O)N[C@@H](CC(C)C)C(=O)N[C@@H](CCC(=O)O)C(=O)N[C@@H](CCC(N)=O)C(=O)N[C@H](C(N)=O)C(C)C)[C@@H](C)CC)[C@@H](C)CC)[C@@H](C)CC)C(C)C)C(C)C
For B1, in the assay with CRF1R receptor, it took 185 nM to reach a half-maximal effect (EC50) and the “Emax (% I)” value stood at 47%. Also, the EC50 [nM] (cAMP) in assay [1] worked out at 0.13 nM.

B2: SEQ ID NO 44 (peptide)
peptide: Ac-IVLSLD[dV]PIK[αMeL]K([γGlu-C16 diacid])KILLEQEKQKKQREQAETN[Aib]QILAQV-NH2
SMILES: CC[C@H](C)[C@H](NC(C)=O)C(=O)N[C@H](C(=O)N[C@@H](CC(C)C)C(=O)N[C@@H](CO)C(=O)N[C@@H](CC(C)C)C(=O)N[C@@H](CC(=O)O)C(=O)N[C@@H](C(=O)N1CCC[C@H]1C(=O)N[C@H](C(=O)N[C@@H](CCCCN)C(=O)N[C@@](C)(CC(C)C)C(=O)N[C@@H](CCCCNC(=O)CC[C@H](NC(=O)CCCCCCCCCCCCCCC(=O)O)C(=O)O)C(=O)N[C@@H](CCCCN)C(=O)N[C@H](C(=O)N[C@@H](CC(C)C)C(=O)N[C@@H](CC(C)C)C(=O)N[C@@H](CCC(=O)O)C(=O)N[C@@H](CCC(N)=O)C(=O)N[C@@H](CCC(=O)O)C(=O)N[C@@H](CCCCN)C(=O)N[C@@H](CCC(N)=O)C(=O)N[C@@H](CCCCN)C(=O)N[C@@H](CCCCN)C(=O)N[C@@H](CCC(N)=O)C(=O)N[C@@H](CCCNC(=N)N)C(=O)N[C@@H](CCC(=O)O)C(=O)N[C@@H](CCC(N)=O)C(=O)N[C@@H](C)C(=O)N[C@@H](CCC(=O)O)C(=O)N[C@H](C(=O)N[C@@H](CC(N)=O)C(=O)NC(C)(C)C(=O)N[C@@H](CCC(N)=O)C(=O)N[C@H](C(=O)N[C@@H](CC(C)C)C(=O)N[C@@H](C)C(=O)N[C@@H](CCC(N)=O)C(=O)N[C@H](C(N)=O)C(C)C)[C@@H](C)CC)[C@@H](C)O)[C@@H](C)CC)[C@@H](C)CC)C(C)C)C(C)C
As to B2, the “Emax (% I)” value with CRF1R receptor amounted to 5%. In assay [1], this molecule registered an EC50 [nM] (cAMP) of 0.25 nM.

B3: SEQ ID NO 29 (peptide)
peptide: Pentanoyl-VLSLD[dV]PIKLK([AEEA-AEEA-γGlu-γGlu-C18 diacid])Q[Aib]LLKQERQKKQREQAEKNVQILEQV-NH2
SMILES: CCCCC(=O)N[C@H](C(=O)N[C@@H](CC(C)C)C(=O)N[C@@H](CO)C(=O)N[C@@H](CC(C)C)C(=O)N[C@@H](CC(=O)O)C(=O)N[C@@H](C(=O)N1CCC[C@H]1C(=O)N[C@H](C(=O)N[C@@H](CCCCN)C(=O)N[C@@H](CC(C)C)C(=O)N[C@@H](CCCCNC(=O)COCCOCCNC(=O)COCCOCCNC(=O)CC[C@H](NC(=O)CC[C@H](NC(=O)CCCCCCCCCCCCCCCCC(=O)O)C(=O)O)C(=O)O)C(=O)N[C@@H](CCC(N)=O)C(=O)NC(C)(C)C(=O)N[C@@H](CC(C)C)C(=O)N[C@@H](CC(C)C)C(=O)N[C@@H](CCCCN)C(=O)N[C@@H](CCC(N)=O)C(=O)N[C@@H](CCC(=O)O)C(=O)N[C@@H](CCCNC(=N)N)C(=O)N[C@@H](CCC(N)=O)C(=O)N[C@@H](CCCCN)C(=O)N[C@@H](CCCCN)C(=O)N[C@@H](CCC(N)=O)C(=O)N[C@@H](CCCNC(=N)N)C(=O)N[C@@H](CCC(=O)O)C(=O)N[C@@H](CCC(N)=O)C(=O)N[C@@H](C)C(=O)N[C@@H](CCC(=O)O)C(=O)N[C@@H](CCCCN)C(=O)N[C@@H](CC(N)=O)C(=O)N[C@H](C(=O)N[C@@H](CCC(N)=O)C(=O)N[C@H](C(=O)N[C@@H](CC(C)C)C(=O)N[C@@H](CCC(=O)O)C(=O)N[C@@H](CCC(N)=O)C(=O)N[C@H](C(N)=O)C(C)C)[C@@H](C)CC)C(C)C)[C@@H](C)CC)C(C)C)C(C)C
As to B3, in the assay with CRF1R receptor, the “EC50” value was greater than 250 nM and the “Emax (% I)” value stood at 6%. In assay [1], this molecule had an EC50 [nM] (cAMP) of 37.2 nM.
Turning to IVLSLD[dV]PIKLK([AEEA-AEEA-γGlu-C16 diacid])QILLKQERQKKQREQAEKNKQILEQV-NH2 [SEQ ID NO 148], in the assay with CRF1R receptor, the “EC50” value was determined as 100 nM and the “Emax (% I)” value was found to be 13%. The molecule also registered an EC50 [nM] (cAMP) in assay [1] of 0.65 nM.

B4: SEQ ID NO 50 (peptide)
peptide: Ac-IVLSLD[dV]PIK[αMeL]K([γGlu-C16 diacid])KILLEQEKQKKQREQAETNVQILAQV-NH2
SMILES: CC[C@H](C)[C@H](NC(C)=O)C(=O)N[C@H](C(=O)N[C@@H](CC(C)C)C(=O)N[C@@H](CO)C(=O)N[C@@H](CC(C)C)C(=O)N[C@@H](CC(=O)O)C(=O)N[C@@H](C(=O)N1CCC[C@H]1C(=O)N[C@H](C(=O)N[C@@H](CCCCN)C(=O)N[C@@](C)(CC(C)C)C(=O)N[C@@H](CCCCNC(=O)CC[C@H](NC(=O)CCCCCCCCCCCCCCC(=O)O)C(=O)O)C(=O)N[C@@H](CCCCN)C(=O)N[C@H](C(=O)N[C@@H](CC(C)C)C(=O)N[C@@H](CC(C)C)C(=O)N[C@@H](CCC(=O)O)C(=O)N[C@@H](CCC(N)=O)C(=O)N[C@@H](CCC(=O)O)C(=O)N[C@@H](CCCCN)C(=O)N[C@@H](CCC(N)=O)C(=O)N[C@@H](CCCCN)C(=O)N[C@@H](CCCCN)C(=O)N[C@@H](CCC(N)=O)C(=O)N[C@@H](CCCNC(=N)N)C(=O)N[C@@H](CCC(=O)O)C(=O)N[C@@H](CCC(N)=O)C(=O)N[C@@H](C)C(=O)N[C@@H](CCC(=O)O)C(=O)N[C@H](C(=O)N[C@@H](CC(N)=O)C(=O)N[C@H](C(=O)N[C@@H](CCC(N)=O)C(=O)N[C@H](C(=O)N[C@@H](CC(C)C)C(=O)N[C@@H](C)C(=O)N[C@@H](CCC(N)=O)C(=O)N[C@H](C(N)=O)C(C)C)[C@@H](C)CC)C(C)C)[C@@H](C)O)[C@@H](C)CC)[C@@H](C)CC)C(C)C)C(C)C
As for B4, the “Emax (% I)” value in the assay with CRF1R receptor worked out at 9%. In addition, the EC50 [nM] (cAMP) in assay [1] was determined as 0.26 nM.
